Test results published in patent publication US20190040115A1 (IMMATICS BIOTECHNOLOGIES, published 2019).

Biological target: T1, HLA-A*02:01 (human)
T1 construct: captured on streptavidin plates; also called peptide-receptive MHC molecules
Assay: UV peptide exchange ELISA (anti-b2m); yield grade: + >10%, ++ >20%, +++ >50, ++++ >75%
Outline: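 Peptide–HLA-A*02:01 complexes were formed by UV cleavage of a photolabile ligand and exchange with the test peptide. Exchange products were diluted 100-fold, captured on streptavidin and detected with HRP-anti-β2m (TMB, 450 nm). Yield was read against refolded HLA-A*02:01/MLA-001 monomer standards (15-500 ng/ml).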

Binder	peptide exchange yield
GIDDLHISL	50 to 75%
SIPDTIASV	50 to 75%
GILSFLPVL	50 to 75%
SIDDSDPIV	10 to 20%
ILDGIIREL	50 to 75%
ILPEAQDYFL	> 75%
SLDEVAVSL	> 75%
FMYAGQLTL	> 75%
SLGPIMLTKI	20 to 50%
IIDDKPIGL	50 to 75%
GLDTILQNL	> 75%
FADELSHLL	50 to 75%
ELDKIYETL	10 to 20%
SIDDVVKKL	20 to 50%
ALKDLVNLI	> 75%
ILLDRLFSV	> 75%
ILGDWSIQV	> 75%
AVDNILLKL	50 to 75%
LLDMSLVKL	50 to 75%
LLDTTQKYL	> 75%
NLPNTNSILGV	50 to 75%
LLDALQHEL	50 to 75%
VMFEYGMRL	> 75%
ILDNSPAFL	50 to 75%

Binder	peptide exchange yield
KLPGFPTQDDEV	20 to 50%
NLPSELPQL	50 to 75%
IIDPPLHGQLL	20 to 50%
FLAEAARSL	> 75%
ILDYIHNGL	50 to 75%
GLDKVITVL	50 to 75%
LLAKAVQNV	50 to 75%
SLAGLVLYV	> 75%
LIDEAAQML	50 to 75%
GTIPLIESL	10 to 20%
TTLGGFAKV	20 to 50%
TLLEVDAIVNA	> 75%
NLDATVTAL	50 to 75%
FLDDGNQML	50 to 75%
ILDELVKSL	50 to 75%
NLQEKVPEL	50 to 75%
YVDSEGIVRM	10 to 20%
IIDDVMKEL	20 to 50%
SIIPYLLEA	> 75%
GLLDVMYQV	> 75%
KLSVHVTAL	> 75%
HTLPHEIVVNL	50 to 75%
QIDSIHLLL	50 to 75%
LLDAFSIKL	50 to 75%
